# Values of other authors, collected in patent US11474093B2, “Analysis method of protein-protein interaction and a screening method of protein-protein interaction inhibitors using a nanopore” (Korea Research Institute of Bioscience and Biotechnology, priority 2016, dated 2022).
# Where two headings read alike, the source gives them in different places.
# Target: MDM2 (Homo sapiens, UniProt Q00987)
# Sequence (Q00987 whole entry): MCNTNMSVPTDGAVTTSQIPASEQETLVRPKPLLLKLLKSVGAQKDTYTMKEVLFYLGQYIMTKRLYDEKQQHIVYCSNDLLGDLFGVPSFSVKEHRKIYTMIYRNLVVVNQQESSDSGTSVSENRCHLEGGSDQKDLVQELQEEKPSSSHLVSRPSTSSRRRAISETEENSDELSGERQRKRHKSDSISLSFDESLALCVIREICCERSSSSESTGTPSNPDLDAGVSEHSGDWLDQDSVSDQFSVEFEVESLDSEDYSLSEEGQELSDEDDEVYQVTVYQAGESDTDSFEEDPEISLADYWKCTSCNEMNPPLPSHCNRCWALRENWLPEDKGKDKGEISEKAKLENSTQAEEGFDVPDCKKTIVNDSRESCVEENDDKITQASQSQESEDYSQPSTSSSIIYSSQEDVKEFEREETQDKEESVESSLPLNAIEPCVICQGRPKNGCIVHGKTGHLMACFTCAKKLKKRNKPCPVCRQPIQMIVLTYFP
substance,measurement,setting,value
p53TAD: residues 1 to 73 of p53 transactivation domain (TAD),Kd,read-out: Kd of the interaction between MDM2 and p53TAD,600 nM
same,Kd,read-out: dissociation coefficient (Kd) with MDM2,~600 nM
